{"source": "paper PMC11842775", "target": "6xHis-tagged Mac3-V570R", "test": "in vitro aggregation assay (turbidity, OD320 over time)", "conditions": "read at t = 60 min; purified 6xHis-tagged proteins; parent: est. 0.81; read off a plot", "data": [{"substance": "6xHis-tagged Mac3 V570R", "values": [{"measurement": "response", "value": 0.5, "unit": "OD320"}]}]}
